± gives the uncertainty stated by the source.
B1: POU domain, class 3, transcription factor 1, residues 247 to 324; numbered along this chain, Q03052 (parent)
chain: EDAPSSDDLEQFAKQFKQRRIKLGFTQADVGLALGTLYGNVFSQTTICRFEALQLSFKNMCKLKPLLNKWLEETDSSS

Variants of: B1
Test: abundance fitness (aPCA) (normalised: wild type 0, dead -1); higher = more abundant; growth selection in yeast, the domain comes from the species named
Settings: Homo sapiens

Variant | abundance fitness
EDAPSSDDREQFAKQFKQRRIKLGFTQADVGLALGTLYGNVFSQTTICRFEALQLSFKNMCKLKPLLNKWLEETDSSS | -0.678 ± 0.1
EDAPSSDDDEQFAKQFKQRRIKLGFTQADVGLALGTLYGNVFSQTTICRFEALQLSFKNMCKLKPLLNKWLEETDSSS | -0.678 ± 0.29
EDAPSSDDAEQFAKQFKQRRIKLGFTQADVGLALGTLYGNVFSQTTICRFEALQLSFKNMCKLKPLLNKWLEETDSSS | -0.532 ± 0.11
EDAPSSDDWEQFAKQFKQRRIKLGFTQADVGLALGTLYGNVFSQTTICRFEALQLSFKNMCKLKPLLNKWLEETDSSS | -0.365 ± 0.091
EDAPSSDDKEQFAKQFKQRRIKLGFTQADVGLALGTLYGNVFSQTTICRFEALQLSFKNMCKLKPLLNKWLEETDSSS | -0.399 ± 0.21
EDAPSSDDGEQFAKQFKQRRIKLGFTQADVGLALGTLYGNVFSQTTICRFEALQLSFKNMCKLKPLLNKWLEETDSSS | -0.651 ± 0.11
EDAPSSDDFEQFAKQFKQRRIKLGFTQADVGLALGTLYGNVFSQTTICRFEALQLSFKNMCKLKPLLNKWLEETDSSS | -0.098 ± 0.13
EDAPSSDDEEQFAKQFKQRRIKLGFTQADVGLALGTLYGNVFSQTTICRFEALQLSFKNMCKLKPLLNKWLEETDSSS | -0.54 ± 0.18
EDAPSSDDIEQFAKQFKQRRIKLGFTQADVGLALGTLYGNVFSQTTICRFEALQLSFKNMCKLKPLLNKWLEETDSSS | -0.398 ± 0.21
EDAPSSDDCEQFAKQFKQRRIKLGFTQADVGLALGTLYGNVFSQTTICRFEALQLSFKNMCKLKPLLNKWLEETDSSS | -0.606 ± 0.24
EDAPSSDDHEQFAKQFKQRRIKLGFTQADVGLALGTLYGNVFSQTTICRFEALQLSFKNMCKLKPLLNKWLEETDSSS | -0.645 ± 0.31
EDAPSSDDSEQFAKQFKQRRIKLGFTQADVGLALGTLYGNVFSQTTICRFEALQLSFKNMCKLKPLLNKWLEETDSSS | -0.833 ± 0.16
EDAPSSDDPEQFAKQFKQRRIKLGFTQADVGLALGTLYGNVFSQTTICRFEALQLSFKNMCKLKPLLNKWLEETDSSS | -0.68 ± 0.24
EDAPSSDDQEQFAKQFKQRRIKLGFTQADVGLALGTLYGNVFSQTTICRFEALQLSFKNMCKLKPLLNKWLEETDSSS | -0.355 ± 0.1
EDAPSSDDVEQFAKQFKQRRIKLGFTQADVGLALGTLYGNVFSQTTICRFEALQLSFKNMCKLKPLLNKWLEETDSSS | -0.095 ± 0.058
EDAPSSDDTEQFAKQFKQRRIKLGFTQADVGLALGTLYGNVFSQTTICRFEALQLSFKNMCKLKPLLNKWLEETDSSS | -0.268 ± 0.11
EDAPSSDDMEQFAKQFKQRRIKLGFTQADVGLALGTLYGNVFSQTTICRFEALQLSFKNMCKLKPLLNKWLEETDSSS | -0.084 ± 0.11
EDAPSSDDLEAFAKQFKQRRIKLGFTQADVGLALGTLYGNVFSQTTICRFEALQLSFKNMCKLKPLLNKWLEETDSSS | -0.087 ± 0.07

Variant | abundance fitness
EDAPSSDDLFQFAKQFKQRRIKLGFTQADVGLALGTLYGNVFSQTTICRFEALQLSFKNMCKLKPLLNKWLEETDSSS | -0.073 ± 0.11
EDAPSSDDLQQFAKQFKQRRIKLGFTQADVGLALGTLYGNVFSQTTICRFEALQLSFKNMCKLKPLLNKWLEETDSSS | -0.144 ± 0.15
EDAPSSDDLYQFAKQFKQRRIKLGFTQADVGLALGTLYGNVFSQTTICRFEALQLSFKNMCKLKPLLNKWLEETDSSS | -0.244 ± 0.18
EDAPSSDDLDQFAKQFKQRRIKLGFTQADVGLALGTLYGNVFSQTTICRFEALQLSFKNMCKLKPLLNKWLEETDSSS | -0.136 ± 0.12
EDAPSSDDLHQFAKQFKQRRIKLGFTQADVGLALGTLYGNVFSQTTICRFEALQLSFKNMCKLKPLLNKWLEETDSSS | 0.243 ± 0.12
EDAPSSDDLSQFAKQFKQRRIKLGFTQADVGLALGTLYGNVFSQTTICRFEALQLSFKNMCKLKPLLNKWLEETDSSS | -0.433 ± 0.1
EDAPSSDDLWQFAKQFKQRRIKLGFTQADVGLALGTLYGNVFSQTTICRFEALQLSFKNMCKLKPLLNKWLEETDSSS | -0.107 ± 0.089
EDAPSSDDLPQFAKQFKQRRIKLGFTQADVGLALGTLYGNVFSQTTICRFEALQLSFKNMCKLKPLLNKWLEETDSSS | -0.432 ± 0.15
EDAPSSDDLMQFAKQFKQRRIKLGFTQADVGLALGTLYGNVFSQTTICRFEALQLSFKNMCKLKPLLNKWLEETDSSS | -0.037 ± 0.08
EDAPSSDDLCQFAKQFKQRRIKLGFTQADVGLALGTLYGNVFSQTTICRFEALQLSFKNMCKLKPLLNKWLEETDSSS | -0.118 ± 0.098
EDAPSSDDLIQFAKQFKQRRIKLGFTQADVGLALGTLYGNVFSQTTICRFEALQLSFKNMCKLKPLLNKWLEETDSSS | -0.456 ± 0.27
EDAPSSDDLRQFAKQFKQRRIKLGFTQADVGLALGTLYGNVFSQTTICRFEALQLSFKNMCKLKPLLNKWLEETDSSS | -0.107 ± 0.057
EDAPSSDDLNQFAKQFKQRRIKLGFTQADVGLALGTLYGNVFSQTTICRFEALQLSFKNMCKLKPLLNKWLEETDSSS | -0.024 ± 0.13
EDAPSSDDLAQFAKQFKQRRIKLGFTQADVGLALGTLYGNVFSQTTICRFEALQLSFKNMCKLKPLLNKWLEETDSSS | -0.178 ± 0.072
EDAPSSDDLKQFAKQFKQRRIKLGFTQADVGLALGTLYGNVFSQTTICRFEALQLSFKNMCKLKPLLNKWLEETDSSS | -0.301 ± 0.17
EDAPSSDDLGQFAKQFKQRRIKLGFTQADVGLALGTLYGNVFSQTTICRFEALQLSFKNMCKLKPLLNKWLEETDSSS | -0.361 ± 0.072
EDAPSSDDLTQFAKQFKQRRIKLGFTQADVGLALGTLYGNVFSQTTICRFEALQLSFKNMCKLKPLLNKWLEETDSSS | -0.121 ± 0.1
